Measured values as given in patent publication US6284879A, “Transport associated protein splice variants” (The General Hospital Corporation, priority 1998, dated 2001).
Entries after “also recorded” stand apart in the source; their conditions may differ.

T1: TAP1/TAP2iso heterodimer (Homo sapiens, UniProt Q03518+Q03519)
T1 construct: expressed in transfected cells
T1 sequence (Q03519 1-653 isoform Q03519-2 L359K/V379I): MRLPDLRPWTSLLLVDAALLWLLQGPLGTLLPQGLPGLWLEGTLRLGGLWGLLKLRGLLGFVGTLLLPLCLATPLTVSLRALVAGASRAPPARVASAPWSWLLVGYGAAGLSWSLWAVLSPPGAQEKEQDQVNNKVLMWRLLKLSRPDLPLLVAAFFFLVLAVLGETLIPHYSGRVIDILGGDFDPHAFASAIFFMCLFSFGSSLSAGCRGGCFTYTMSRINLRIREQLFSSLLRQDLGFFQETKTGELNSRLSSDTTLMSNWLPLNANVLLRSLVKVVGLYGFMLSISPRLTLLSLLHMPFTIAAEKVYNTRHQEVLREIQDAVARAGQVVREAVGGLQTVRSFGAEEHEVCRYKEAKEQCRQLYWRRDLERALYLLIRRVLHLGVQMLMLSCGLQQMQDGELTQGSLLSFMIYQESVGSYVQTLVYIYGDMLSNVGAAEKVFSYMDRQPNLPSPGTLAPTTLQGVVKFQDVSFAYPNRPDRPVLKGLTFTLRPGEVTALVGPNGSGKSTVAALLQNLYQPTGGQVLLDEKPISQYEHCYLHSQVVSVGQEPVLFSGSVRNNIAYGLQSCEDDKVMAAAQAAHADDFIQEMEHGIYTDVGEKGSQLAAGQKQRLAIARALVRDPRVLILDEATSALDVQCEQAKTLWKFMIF
T1 sequence (Q03518 1-748): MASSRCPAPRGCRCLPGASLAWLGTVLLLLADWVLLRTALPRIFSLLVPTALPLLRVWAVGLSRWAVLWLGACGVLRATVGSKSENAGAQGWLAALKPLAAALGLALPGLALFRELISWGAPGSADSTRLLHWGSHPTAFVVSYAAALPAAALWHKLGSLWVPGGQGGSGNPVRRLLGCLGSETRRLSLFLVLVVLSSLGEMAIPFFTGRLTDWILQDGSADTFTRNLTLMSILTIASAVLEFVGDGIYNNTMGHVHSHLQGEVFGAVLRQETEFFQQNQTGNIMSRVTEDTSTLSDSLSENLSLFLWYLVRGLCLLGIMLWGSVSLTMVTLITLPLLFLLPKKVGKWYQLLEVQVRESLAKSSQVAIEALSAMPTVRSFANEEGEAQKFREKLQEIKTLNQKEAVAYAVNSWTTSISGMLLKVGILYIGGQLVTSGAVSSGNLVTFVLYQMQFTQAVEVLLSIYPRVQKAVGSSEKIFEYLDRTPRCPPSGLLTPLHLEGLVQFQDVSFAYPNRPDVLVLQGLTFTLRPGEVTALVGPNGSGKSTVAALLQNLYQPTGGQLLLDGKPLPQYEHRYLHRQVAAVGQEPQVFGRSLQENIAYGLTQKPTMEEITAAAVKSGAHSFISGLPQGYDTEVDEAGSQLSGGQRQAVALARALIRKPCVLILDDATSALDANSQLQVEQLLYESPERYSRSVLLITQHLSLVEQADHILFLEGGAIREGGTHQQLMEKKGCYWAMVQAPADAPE

B1: TAP1: known TAP1 subunit (TAP1 A allele cDNA) (protein)
chain: T1 sequence (Q03518 1-748)
B2: TAP1/TAP2: previously known TAP transporter, heterodimer of the TAP1 and TAP2 gene products (protein)
chain 1: T1 sequence (Q03518 1-748)
chain 2: MRLPDLRPWTSLLLVDAALLWLLQGPLGTLLPQGLPGLWLEGTLRLGGLWGLLKLRGLLGFVGTLLLPLCLATPLTVSLRALVAGASRAPPARVASAPWSWLLVGYGAAGLSWSLWAVLSPPGAQEKEQDQVNNKVLMWRLLKLSRPDLPLLVAAFFFLVLAVLGETLIPHYSGRVIDILGGDFDPHAFASAIFFMCLFSFGSSLSAGCRGGCFTYTMSRINLRIREQLFSSLLRQDLGFFQETKTGELNSRLSSDTTLMSNWLPLNANVLLRSLVKVVGLYGFMLSISPRLTLLSLLHMPFTIAAEKVYNTRHQEVLREIQDAVARAGQVVREAVGGLQTVRSFGAEEHEVCRYKEAKEQCRQLYWRRDLERALYLLIRRVLHLGVQMLMLSCGLQQMQDGELTQGSLLSFMIYQESVGSYVQTLVYIYGDMLSNVGAAEKVFSYMDRQPNLPSPGTLAPTTLQGVVKFQDVSFAYPNRPDRPVLKGLTFTLRPGEVTALVGPNGSGKSTVAALLQNLYQPTGGQVLLDEKPISQYEHCYLHSQVVSVGQEPVLFSGSVRNNIAYGLQSCEDDKVMAAAQAAHADDFIQEMEHGIYTDVGEKGSQLAAGQKQRLAIARALVRDPRVLILDEATSALDVQCEQALQDWNSRGDRTVLVIAHRLQTVQRAHQILVLQEGKLQKLAQL
B3: TAP1/TAP2iso: novel TAP heterodimer of TAP1 and splice variant TAP2iso, expressed from transfected cDNAs (protein)
chain 1: T1 sequence (Q03518 1-748)
chain 2: T1 sequence (Q03519 1-653 isoform Q03519-2 L359K/V379I)

Tests used:
[1] = target: T1, TAP1/TAP2iso heterodimer; assay: competition with transport of 125I-Peptide RRYQNSTEL in TAP1/TAP2iso transfectants; assay type: cell-based; details: unlabeled competitor peptide; comparison in words
Experimental: (§1) Glycosylated ^125 I Peptide […] (SEQ ID NO: 6), Peptide […] (SEQ ID NO: 7), or Peptide […] (SEQ ID NO: 8) was recovered and measured. The peptide translocation assay was performed essentially as previously described (Neefjes et al., Science, 261:769 (1993); and Momburg et al., J. Exp. Med., 179:1613 (1994)). Briefly, 2.5-5.0×10^6 T2 cell (transfected or untransfected) were washed once with incubation buffer (130 mM KCl, 10 mM NaCl, 1 mM CaC2, 2 mM EDTA, 2 mM MgCl2, 5 mM Hepes, pH 7.3) and permeabilized for 10 minutes at 37° C. with streptolysin O (2 IU/ml) (Wellcome, Beckenham, UK) in 50 μl of incubation buffer. After further addition of 10 μl of 100 mM adenosine triphosphate, 10 μl of ^125 I-labeled peptide (~15 pM), and 30 μl of incubation buffer, cells were incubated for an additional 10 minutes at 37° C. Transport was terminated by the addition of 1 ml of 1% NP-40 detergent, after which nuclei were removed by centrifugation and glycosylated peptides were recovered using concanavalin A-Sepharose (Sigma, St. Louis, Mo.) and quantitated with a gamma counter (LKB-Wallac).
Differential peptide selectivity of the TAP1/TAP2 and TAP1/TAP2iso heterodimers was further investigated by competition experiments with ^125 I-labeled Peptide […] (SEQ ID NO: 6) and various unlabeled peptides: Peptide […] (SEQ ID NO: 6); Peptide […] (SEQ ID NO: 7); Peptide […] (SEQ ID NO: 8); Peptide […] (SEQ ID NO: 9), the S1-24 fragment of human adrenocorticotropic hormone); and Peptide […] (SEQ ID NO: 10), residues 22 to 30 (human insulin B chain). The iodinated 9-mer Peptide […] was translocated in the presence of different concentrations of unlabeled competition peptides. The glycosylated peptides were recovered by Con A-Sepharose and quantitated. […] (self); (6B) competition of ^125 I-Peptide […] with Peptide […]; (6C) competition of ^125 I-Peptide […] with Peptide […]; and (6D) competition of ^125 I-Peptide […] with Peptide […]; and (6E) competition of ^125 I-Peptide […] with Peptide […].

[2] = system: T1 cells (naturally co-express both TAP2 and TAP2iso); details: in words
[3] = system: TAP1/TAP2iso heterodimer (compared with TAP1/TAP2); assay: translocation of 125I-labeled peptides into the ER of permeabilized T2 transfectants; assay type: cell-based, human; details: 125I-labeled glycosylated peptide recovered from streptolysin O permeabilized T2 transfectants; comparison in words
Experimental: 10 mM stock solutions of peptides were prepared in dimethyl sulfoxide. Peptides (25 μg) were directly iodinated at unique tyrosine residues with the use of chloramine T (Sigma, St. Louis, Mo.), and free iodine was removed by gel filtration using Sephadex G 10 (Pharmacia) column chromatography.
as §1

[4] = system: HLA class I (A2) on T2 cells; assay: restoration of surface expression of HLA class I (A2) on transfected T2 cells, flow cytometry; assay type: cell-based, human; details: for Mean fluorescence of HLA class 1 (A2) Mean ± SD / surface expression of HLA/MHC class I: T2 cells transfected with the named cDNAs; for Mean fluorescence of HLA class 1 (A2) Mean ± SD: four separate experiments, at least three stable clones; for surface expression of HLA/MHC class I: in words
Experimental: Plasmid DNAs were prepared using MAXI-PREP kits (Qiagen). TAP1- and TAP2-deficient T2 cells (donated by P. Cresswell, Howard Hughes Medical Institute, Yale University) (1-2×10^7 cells/ml) were transfected by electroporation with 10 μg of TAP1 and TAP2 or TAP2iso linear plasmid DNA in a 0.4-cm cuvette at 260 V and 960 μF. Subcloning and selection of transfectants were performed by culturing in the presence of hygromycin (250 μg/ml) or histidinol ([…]) for the PREP 4 and PREP8 vectors, respectively.
Immune complexes were detected with fluorescein isothiocyanate-conjugated goat anti-mouse IgG antibodies (Coulter, Hialeah, Fla.) and an Epics Elite flow cytometer (Coulter).
T2 cells were transfected with TAP1 cDNA in combination with TAP2 or TAPiso cDNAs as described above.

Row | Molecule | inhibition of transport of 125I-Peptide RRYQNSTEL, TAP1/TAP2iso compared with TAP1/TAP2 transfectants [1] | transportation of test peptides (relative IC50) [2] | amount of translocated peptide, TAP1/TAP2iso compared with TAP1/TAP2 [3] | Mean fluorescence of HLA class 1 (A2) Mean ± SD [4] | surface expression of HLA/MHC class I [4] | surface MHC class I expression, greater than in cells transfected with TAP1-TAP2 cDNAs ([4]; transfected T2 cells)
1 | IYLGPFSPNVTL [Peptide IYLGPFSPNVTL] | markedly greater extent in TAP1/TAP2iso transfectants | equal efficiency | transported to a greater extent by TAP/TAP2iso; also recorded: four times more efficiently by the TAP1/TAP2iso heterodimer |  |  | 
2 | RGFFYTPKA [Peptide RGFFYTPKA, residues 22 to 30 (human insulin B chain)] | in TAP1/TAP2iso to a greater extent |  |  |  |  | 
3 | TVDNKTRYE [Peptide TVDNKTRYE] | markedly greater extent in TAP1/TAP2 transfectants | equal efficiency | transported to a greater extent by TAP1/TAP2; also recorded: transported more efficiently in the TAP1/TAP2 transfectant |  |  | 
4 | B1 |  |  |  | 5.19 ± .35 | no effect | 
5 | B2 |  |  |  | 7.59 ± .31 | restored surface expression | 
6 | B3 |  |  |  | 11.16 ± .50 | restored surface expression | 30%
